This data set addresses RPL26 (Homo sapiens, UniProt P61254 SEQ:1-145). Nature of the data set: EMSA; supershift with anti-penta His; 1.5 mM Mg acetate, 90 mM K acetate, 30 C. Background: A gel shift assay detects complexes by their altered migration in electrophoresis.

B1: p53 5'UTR (-191 to 2) (ssRNA)
RNA: GGUUUUCCCCUCCCAUGUGCUCAAGACUGGCGCUAAAAGUUUUGAGCUUCUCAAAAGUCUAGAGCCACCGUCCAGGGAGCAGGUAGCUGCUGGGCUCCGGGGACACUUUGCGUUCGGGCUGGGAGCGUGCUUUCCACGACGGUGACACGCUUCCCUGGAUUGGCAGCCAGACUGCCUUCCGGGUCACUGCCAU
In the case of B1, the binding result is “binds”.

The record behind these values is US20090149377, “METHODS FOR REGULATION OF p53 TRANSLATION AND FUNCTION” (ST. JUDE CHILDREN'S RESEARCH HOSPITAL, published 2009).
